From publication PMC5772350 come the findings set out here.

Assay [1] concerns the target B5-Rhiz (anti-CEA sdAb fused C-terminally to rhizavidin). Briefly: SPR. On the technique in general: Surface plasmon resonance follows binding to a sensor surface in real time, without labels.
In assay [2] the target is B5-GS3K (anti-CEA sdAb with C-terminal positively charged tail). Briefly: SPR.

For the substance “Carcinoembryonic antigen (CEA) (from UniProt P06731 35-685) (natural protein)”, in assay [1], the Activity (%) came to 5% and the XA (RU), SPR response to 100 nM CEA worked out at 839 RU. The same substance displayed an Activity (%) in assay [2] of 14.3%.
